The text below walks through data of PMC7056315 (Science Advances, 2020).

The target of experiment [1] is KcsA-Shaker channel (KcsA pore carried in the Shaker channel) (Drosophila | not stated). Description: […].
For experiment [2] the target is unchanged. In words: two-electrode voltage clamp. A general note: In two-electrode clamp one electrode senses voltage and the other passes current.
Experiment [3] deals with human Kv1.3 channel (human) (UniProt P22001). Description: two-electrode voltage clamp.
Experiment [4] deals with KcsA-Shaker channel (KcsA pore carried in the Shaker channel) (Drosophila | not stated). Description: two-electrode voltage clamp. The source holds these as a separate data set.
In experiment [5] the target is KcsA-Shaker channels. To be noted: TEA block of KcsA-Shaker; cited from earlier work.
Experiment [6] deals with KcsA-Shaker channels. In words: TEVC block of KcsA-Shaker channels expressed in Xenopus oocytes. Format: cell-based.
A further experiment deals with KcsA-Shaker–Y82V. In words: TEVC equilibrium inhibition of pore mutant KcsA-Shaker-Y82V in oocytes. It counts as cell-based. To be noted: KcsA-Shaker–Y82V vs KcsA-Shaker, 0 mV.
Experiment [7] addresses human Kv1.3 channel (human) (UniProt P22001). In words: […].
In experiment [8] the target is KcsA-Shaker–Y82V (Drosophila | not stated). In words: […].

Chain of human Kv1.3 channel (human) (P22001 whole entry): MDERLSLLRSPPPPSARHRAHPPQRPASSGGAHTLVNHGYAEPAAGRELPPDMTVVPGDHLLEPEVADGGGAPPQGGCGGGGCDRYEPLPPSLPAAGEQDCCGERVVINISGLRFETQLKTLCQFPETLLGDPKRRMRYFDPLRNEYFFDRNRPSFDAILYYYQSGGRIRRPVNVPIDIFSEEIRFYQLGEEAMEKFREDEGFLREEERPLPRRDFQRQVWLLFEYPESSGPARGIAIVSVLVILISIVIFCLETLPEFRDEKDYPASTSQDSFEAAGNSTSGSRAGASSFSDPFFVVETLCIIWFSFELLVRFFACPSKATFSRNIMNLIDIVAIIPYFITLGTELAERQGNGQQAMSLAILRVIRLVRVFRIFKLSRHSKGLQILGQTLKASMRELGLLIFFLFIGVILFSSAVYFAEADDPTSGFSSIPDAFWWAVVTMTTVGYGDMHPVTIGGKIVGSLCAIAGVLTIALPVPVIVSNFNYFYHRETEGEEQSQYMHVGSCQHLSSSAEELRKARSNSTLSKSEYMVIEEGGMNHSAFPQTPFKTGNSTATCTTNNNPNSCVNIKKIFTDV

A word on the Ki: it is a measure of affinity in units of concentration, obtained from inhibition or displacement. As a reminder, the koff is the rate constant with which the complex falls apart. A lower koff goes with slow dissociation. One may read the kon as a measure of how fast the partners come together. For Peptide HmK-Tyr^23Ala, in experiment [1], the Ki came out at 162 nM, the off-rate (koff) was found to be 0.15 s⁻¹ and the kon worked out at 930000 M⁻¹ s⁻¹.

As to “T-HmK variant Pro^8 to alanine (peptide)”, the fold decrease of affinity against T-HmK in [2] is 10 fold.

As to T-HmK–Lys^22Asn (peptide), in experiment [3], the fold change of apparent Ki against T-HmK was 230 fold and the percent of current blocked (0.5 ng of cRNA) turned out to be 2%. In experiment [2], this molecule returned an inhibition constant (Ki) of 35 nM, a koff of 0.11 s⁻¹, a kon of 3.1e+06 M⁻¹ s⁻¹ and a percent of current blocked (0.5 ng of cRNA) of less than 38%.

As to Peptide HmK-Lys^22Asn, in experiment [1], the Ki worked out at 225 nM, the koff was determined as 0.1 s⁻¹ and the kon was 380000 M⁻¹ s⁻¹.

Regarding T-ShK (membrane-tethered ShK) (peptide), the Ki in experiment [3] was 0.098 nM.

In experiment [4], “T-HmK (membrane-tethered HmK, 46-residue linker) (peptide)” registered a Ki of 1.1 nM. The Ki in experiment [3] amounted to 3 nM. Besides, in [2], the Ki was 1.09 nM, the apparent first-order on rate (effective T-HmK 1 nM) is 0.014 s⁻¹, the apparent first-order on rate (effective T-HmK 17 nM) is 0.119 s⁻¹ and the koff was determined as 0.0073 s⁻¹. For the same molecule, in experiment [2], the kon amounted to 6.6e+06 M⁻¹ s⁻¹, the percent of current inhibited (0.01 ng of T-HmK cRNA) is 2%, the percent of current inhibited (0.25 ng of T-HmK cRNA) stood at 76% and the percent of current inhibited (0.35 ng of T-HmK cRNA) is 87%. In addition, in experiment [2], the percent of current inhibited (0.5 ng of T-HmK cRNA) is greater than 94%, the percent of current inhibited (1 ng of T-HmK cRNA) was 98% and the τon (0.25 ng of T-HmK cRNA) was found to be 33 s.

In experiment [2], T-HmK–Tyr^23Ala (peptide) yielded a Ki of 28 nM, an off-rate constant (koff) of 0.17 s⁻¹, a kon of 6.1e+06 M⁻¹ s⁻¹ and a percent of current blocked (0.5 ng of cRNA) of less than 38%.

In experiment [3], T-ShK–Arg^24Gln (peptide) showed a Ki of 0.075 nM and a percent of current blocked (0.1 ng of cRNA) of 93%.

Turning to `CC[N+](CC)(CC)CC` [TEA, tetraethylammonium], the Ki at KcsA-Shaker channels [5] was roughly 800000 nM. For the same molecule, the “block of KcsA-Shaker” value in the experiment on KcsA-Shaker channels [6] (100 mM TEA) is “complete”. In the experiment with KcsA-Shaker channels [6] (washout of 100 mM TEA), the “τoff (dissociation / unblock)” value was ~ 1.3 s. Also, the “decrease in equilibrium affinity by mutation of pore residue Tyr^82 to Val” value in the experiment with KcsA-Shaker–Y82V is ~ 200 fold.

With T-ShK–Lys^22Asn (peptide), in [3], the Ki was found to be 0.42 nM and the percent of current blocked (0.1 ng of cRNA) is 70%.

The molecule “T-HmK variant Asn^26 to alanine (peptide)” had a fold decrease of affinity against T-HmK in [2] of 10 fold.

The molecule T-HmK-Lys22Asn registered a koff in experiment [7] of 0.93 s⁻¹.

ShK-Lys22Asn peptide showed a Ki in [3] of 1.2 nM.

On to HmK peptide, for which the fold decrease of equilibrium affinity against KcsA-Shaker in experiment [8] was 550 fold. Moreover, in [7], the inhibition constant (Ki) amounted to 3.1 nM. Moreover, in [1], the Ki was found to be 0.94 nM, the kon came to 1.3e+06 M⁻¹ s⁻¹, the τoff was determined as 714 s and the τon (5 nM HmK) is 126 s. Further, in experiment [2], the kon was 1.2e+06 M⁻¹ s⁻¹ and the τon (30 nM HmK, after TEA wash off) worked out at 27 s.

Turning to ShK-K22N peptide, in experiment [7], the fold decrease of inhibition against ShK peptide worked out at 24 fold.

Turning to T-HmK–Arg^24Gln (peptide), in [3], the fold change of apparent Ki against T-HmK was 3 fold and the percent of current blocked (0.5 ng of cRNA) worked out at 68%. Further, in [2], the Ki worked out at 0.91 nM, the koff was found to be 0.0063 s⁻¹ and the kon came to 6.9e+06 M⁻¹ s⁻¹.
